Consider eleven molecules from patent US20230340151A1 (Pfizer, published 2023).

Numbering of substitutions follows the chain as printed.

The labels stand for the following.
T1: Human CD3 epsilon-delta (human)
T1 construct: Single-chain epsilon-linker-delta with His6; also called huCD3
T1 chain: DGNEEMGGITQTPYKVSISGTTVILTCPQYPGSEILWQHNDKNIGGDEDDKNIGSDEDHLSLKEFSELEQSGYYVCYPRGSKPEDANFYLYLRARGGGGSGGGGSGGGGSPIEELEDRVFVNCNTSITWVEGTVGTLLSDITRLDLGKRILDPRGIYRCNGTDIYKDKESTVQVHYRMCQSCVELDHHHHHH

B1: GUCY2C-0078 (bispecific antibody)
chain 1: DIVLTQSPASLAVSLGQRATISCRAGESVDNFDISFMNWFQQKPGQPPKLLIYAASNQGSGVPARFSGSGSGTDFSLNIHPMEEDDTAMYFCQQSKEVPYTFGGGTKLEIKGGGSGGGGEVQLVESGGGLVQPGGSLRLSCAASGFTFSDYYMTWVRQAPGKGLEWVAFIRNRARGYTSDHNPSVKGRFTISRDNAKNSLYLQMNSLRAEDTAVYYCARDRPSYYVLDYWGQGTTVTVSSGCPPCPAPEAAGAPSVFLFPPKPKDTLMISRTPEVTCVVVDVSHEDPEVKFNWYVDGVEVHNAKTKPREEQYNSTYRVVSVLTVLHQDWLNGKEYKCKVSNKALPAPIEKTISKAKGQPREPQVCTLPPSREEMTKNQVSLWCLVKGFYPSDIAVEWESNGQPENNYKTTPPVLDSDGSFFLYSKLTVDKSRWQQGNVFSCSVMHEALHNHYTQKSLSLSPG
chain 2: DIVMTQSPDSLAVSLGERATINCKSSQSLFNVRSRKNYLAWYQQKPGQPPKLLISWASTRESGVPDRFSGSGSGTDFTLTISSLQAEDVAVYYCKQSYDLFTFGSGTKLEIKGGGSGGGGEVQLQQSGAELARPGASVKLSCKASGYTFTKYWMQWIKQRPGQGLEWIGAIYPGDGFTTYTQKFKGKATLTADKSSNTAYMQLSSLASEDSAVYYCARRNYGRTYGGDYWGQGTSVTVSSGCPPCPAPEAAGAPSVFLFPPKPKDTLMISRTPEVTCVVVDVSHEDPEVKFNWYVDGVEVHNAKTKPREEQYNSTYRVVSVLTVLHQDWLNGKEYKCKVSNKALPAPIEKTISKAKGQPREPQVYTLPPCREEMTKNQVSLSCAVKGFYPSDIAVEWESNGQPENNYKTTPPVLDSDGSFFLVSKLTVDKSRWQQGNVFSCSVMHEALHNHYTQKSLSLSPG
B2: GUCY2C-0105 (bispecific antibody)
chain 1: DIVMTQSPSSLAVSVGEKVTVSCKSSQSLLYSSNQKNYLAWYQQRPGQSPKLLIYWASTRESGVPDRFTGSGSGTDFTLSISSVKAEDLAVYYCQQYYSYPTFGGGTKLEIKGGGSGGGGEVQLVESGGGLVQPGGSLRLSCAASGFTFSDYYMTWVRQAPGKGLEWVAFIRNRARGYTSDHNPSVKGRFTISRDNAKNSLYLQMNSLRAEDTAVYYCARDRPSYYVLDYWGQGTTVTVSSGCPPCPAPEAAGAPSVFLFPPKPKDTLMISRTPEVTCVVVDVSHEDPEVKFNWYVDGVEVHNAKTKPREEQYNSTYRVVSVLTVLHQDWLNGKEYKCKVSNKALPAPIEKTISKAKGQPREPQVCTLPPSREEMTKNQVSLWCLVKGFYPSDIAVEWESNGQPENNYKTTPPVLDSDGSFFLYSKLTVDKSRWQQGNVFSCSVMHEALHNHYTQKSLSLSPG
chain 2: DIVMTQSPDSLAVSLGERATINCKSSQSLFNVRSRKNYLAWYQQKPGQPPKLLISWASTRESGVPDRFSGSGSGTDFTLTISSLQAEDVAVYYCKQSYDLFTFGSGTKLEIKGGGSGGGGEVQLQQSGPELVKPGASVKISCKASGYSFTDYIMLWVKQSHGKSLEWIGNSNPYYGSTSYNLKFKGKATLTVDKSSSTAYMHLNSLTSEDSAVYYCARSGYYGSSPYWYFDVWGAGTTVTVSSGCPPCPAPEAAGAPSVFLFPPKPKDTLMISRTPEVTCVVVDVSHEDPEVKFNWYVDGVEVHNAKTKPREEQYNSTYRVVSVLTVLHQDWLNGKEYKCKVSNKALPAPIEKTISKAKGQPREPQVYTLPPCREEMTKNQVSLSCAVKGFYPSDIAVEWESNGQPENNYKTTPPVLDSDGSFFLVSKLTVDKSRWQQGNVFSCSVMHEALHNHYTQKSLSLSPG
notes: chimeric CD3-GUCY2c diabody-Fc, CD3-0004
B3: GUCY2C-1705 (antibody, human IgG1, V domains shown)
VH: EVQLVESGGGLVQPGGSLRLSCAASGFTFSSYWMHWVRQAPGKGLEWIGEIKPSRGFTNVHEKFKDRFTISVDKAKNSAYLQMNSLRAEDTAVYYCTRTITTTEGYWFFDVWGQGTLVTVSS
VL: DIQLTQSPSSLSASVGDRVTITCRASESVDYYGSSLMQWYQQKPGKAPKLLIYAASKLASGVPSRFSGSGSGTDFTLTISSLQPEDFATYYCQQTRKAYTFGQGTKLEIK
notes: full human IgG1/kappa
B4: GUCY2C-1640 (antibody, human IgG1, kappa, V domains shown)
VH: B3 VH with R55N, G56E, F57L
VL: DIQLTQSPSSLSASVGDRVTITCRASESVDYYGSSLLQWYQQKPGKAPKLLIYAASKLASGVPSRFSGSGSGTDFTLTISSLQPEDFATYYCQQTRKAYTFGQGTKLEIKR
B5: GUCY2C-1708 (antibody, human IgG1, V domains shown)
VH: B3 VH with S31R, Y32P, R55T, F57W, E104T
VL: B3 VL with G33K, S34H
notes: full human IgG1/kappa
B6: GUCY2C-1714 (antibody, human IgG1, V domains shown)
VH: B3 VH with S31H, Y32T, R55T, G56K, F57Y, T97A, T101F, T103R
VL: B3 VL with D30N, Y31W
notes: full human IgG1/kappa
B7: GUCY2C-1696 (antibody, human IgG1, V domains shown)
VH: B3 VH with S31T, Y32R, R55N, G56K, F57L, T97A, F109L, D110S, V111D
VL: B3 VL with S34H
notes: full human IgG1/kappa
B8: GUCY2C-1710 (antibody, human IgG1, V domains shown)
VH: B3 VH with F57W, T97A
VL: B3 VL with G33R, S34H
notes: full human IgG1/kappa
B9: GUCY2C-1706 (antibody, human IgG1, V domains shown)
VH: B3 VH with Y32T, R55N, G56E, F57L
VL: B3 VL
notes: full human IgG1/kappa
B10: GUCY2C-1703 (antibody, human IgG1, V domains shown)
VH: B3 VH with R55N, G56R, F57W, T58N
VL: B3 VL
notes: full human IgG1/kappa
B11: GUCY2C-1713 (antibody, human IgG1, V domains shown)
VH: B3 VH with S31H, Y32T, E104Q
VL: B3 VL with D30N, Y31W
notes: full human IgG1/kappa

T3 sequence (P25092 other isoform, or with tags, fused parts or gaps): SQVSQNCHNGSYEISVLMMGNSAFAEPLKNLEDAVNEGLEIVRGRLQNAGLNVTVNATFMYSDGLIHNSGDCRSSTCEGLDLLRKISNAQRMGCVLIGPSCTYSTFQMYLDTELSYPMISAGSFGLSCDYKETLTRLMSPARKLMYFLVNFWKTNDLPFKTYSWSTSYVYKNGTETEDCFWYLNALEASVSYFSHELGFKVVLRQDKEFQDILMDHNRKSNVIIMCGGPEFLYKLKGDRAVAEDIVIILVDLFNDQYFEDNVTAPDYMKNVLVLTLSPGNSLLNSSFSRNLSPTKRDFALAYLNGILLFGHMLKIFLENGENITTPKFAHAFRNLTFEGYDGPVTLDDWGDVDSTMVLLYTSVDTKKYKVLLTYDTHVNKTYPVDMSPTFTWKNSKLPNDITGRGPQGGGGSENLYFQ
T2 sequence (P25092 24-430 limits assumed): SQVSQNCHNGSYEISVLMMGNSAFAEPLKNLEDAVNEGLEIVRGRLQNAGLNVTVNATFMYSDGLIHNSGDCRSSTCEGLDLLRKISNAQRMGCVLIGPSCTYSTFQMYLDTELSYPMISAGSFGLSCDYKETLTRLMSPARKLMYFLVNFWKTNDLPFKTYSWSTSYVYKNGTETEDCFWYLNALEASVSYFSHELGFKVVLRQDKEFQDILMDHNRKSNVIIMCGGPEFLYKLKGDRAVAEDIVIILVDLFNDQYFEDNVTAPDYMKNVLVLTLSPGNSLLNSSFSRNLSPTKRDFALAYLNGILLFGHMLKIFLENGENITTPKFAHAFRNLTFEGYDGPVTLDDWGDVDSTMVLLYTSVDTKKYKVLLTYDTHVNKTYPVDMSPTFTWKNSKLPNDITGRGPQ
T4 sequence (chain, as listed by the source limits assumed): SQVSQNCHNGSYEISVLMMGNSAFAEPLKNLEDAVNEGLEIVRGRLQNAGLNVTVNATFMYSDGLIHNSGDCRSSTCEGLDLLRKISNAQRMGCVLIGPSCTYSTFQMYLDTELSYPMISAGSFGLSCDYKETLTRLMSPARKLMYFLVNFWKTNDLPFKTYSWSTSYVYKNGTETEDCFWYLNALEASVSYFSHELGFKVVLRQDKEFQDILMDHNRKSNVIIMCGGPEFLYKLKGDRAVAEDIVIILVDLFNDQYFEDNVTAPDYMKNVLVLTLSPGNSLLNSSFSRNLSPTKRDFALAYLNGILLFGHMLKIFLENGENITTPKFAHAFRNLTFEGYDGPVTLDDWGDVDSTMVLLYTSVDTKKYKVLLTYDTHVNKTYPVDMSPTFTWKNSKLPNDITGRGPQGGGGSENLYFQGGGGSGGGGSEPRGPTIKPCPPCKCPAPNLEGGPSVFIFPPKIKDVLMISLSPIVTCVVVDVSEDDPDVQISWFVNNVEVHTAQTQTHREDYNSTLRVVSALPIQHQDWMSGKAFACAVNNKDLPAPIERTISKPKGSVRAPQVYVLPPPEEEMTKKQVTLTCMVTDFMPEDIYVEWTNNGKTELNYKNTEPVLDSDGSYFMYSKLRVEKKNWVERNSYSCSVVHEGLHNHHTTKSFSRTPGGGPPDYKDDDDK

The first experiment deals with Human GUCY2c on tumor cells (T84, HT55) (human, UniProt P25092 24-1073). Nature of the experiment: cell-based or functional assay.
Chain of Human GUCY2c on tumor cells (T84, HT55) (P25092 24-1073 limits assumed): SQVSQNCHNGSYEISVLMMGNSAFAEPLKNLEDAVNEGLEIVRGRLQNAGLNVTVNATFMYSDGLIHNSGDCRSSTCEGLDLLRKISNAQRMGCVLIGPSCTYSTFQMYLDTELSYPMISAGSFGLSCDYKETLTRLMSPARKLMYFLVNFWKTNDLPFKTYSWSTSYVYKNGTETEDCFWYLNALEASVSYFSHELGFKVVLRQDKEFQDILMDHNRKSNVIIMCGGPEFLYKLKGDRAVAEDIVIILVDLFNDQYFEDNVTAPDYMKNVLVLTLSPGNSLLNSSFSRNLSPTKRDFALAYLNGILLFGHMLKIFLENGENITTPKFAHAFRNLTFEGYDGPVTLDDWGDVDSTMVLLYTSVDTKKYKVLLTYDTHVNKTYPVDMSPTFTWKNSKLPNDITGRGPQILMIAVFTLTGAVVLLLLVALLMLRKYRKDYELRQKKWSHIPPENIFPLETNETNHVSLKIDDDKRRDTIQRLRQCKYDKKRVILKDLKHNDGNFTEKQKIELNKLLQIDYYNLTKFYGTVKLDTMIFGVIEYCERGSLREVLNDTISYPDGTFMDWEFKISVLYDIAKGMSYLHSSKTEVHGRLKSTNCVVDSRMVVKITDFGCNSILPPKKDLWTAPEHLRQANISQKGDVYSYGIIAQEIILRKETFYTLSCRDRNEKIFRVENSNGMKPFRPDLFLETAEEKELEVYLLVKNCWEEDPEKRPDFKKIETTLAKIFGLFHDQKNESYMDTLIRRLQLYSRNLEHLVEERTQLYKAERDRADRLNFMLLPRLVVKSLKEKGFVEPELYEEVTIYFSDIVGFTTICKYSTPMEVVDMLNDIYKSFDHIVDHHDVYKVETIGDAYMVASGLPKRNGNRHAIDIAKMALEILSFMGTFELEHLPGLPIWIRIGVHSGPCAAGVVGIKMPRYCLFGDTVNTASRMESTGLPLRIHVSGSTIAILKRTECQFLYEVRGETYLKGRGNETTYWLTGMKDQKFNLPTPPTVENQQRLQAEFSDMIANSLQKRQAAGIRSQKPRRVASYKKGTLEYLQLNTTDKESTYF
In the case of B1, the “T84 tumor cell EC50 (T cell cytotoxicity, E:T 10:1)” value amounted to 7.8 nM.
As for B2, the “T84 tumor cell EC50 (T cell cytotoxicity, E:T 10:1)” value was determined as 7.51 nM.

The next experiment concerns the target T2, Purified human GUCY2c ECD (recombinant, construct not stated) (human, UniProt P25092 24-430).
T2 construct: also called recombinant human GUCY2c; recombinant GUCY2c protein
Nature of the experiment: direct ELISA, coated GUCY2c ECD.
B1: the EC50 amounted to 23.5 nM.
On the same count and under the same terms, the figure for B2 is 79.8 nM.

Another experiment concerns the target T1, Human CD3 epsilon-delta. The experiment in a line: direct ELISA, coated CD3 epsilon-delta. (In general: An ELISA detects its analyte on a solid surface through an enzyme-linked reagent.)
Method: Proteins were screened for binding to recombinant human, cyno and mouse proteins by ELISA. Purified human, cynomolgus, murine GUCY2c ECD or human CD3 epsilon-delta proteins were coated on Nunc-Maxisorb 384-well ELISA plates at 1 μg/ml in 20 μl in PBS-CMF (calcium and magnesium free) at 4 C. Plates were washed 3x with PBS+0.05% TWEEN20 and blocked with PBS+3% milk for 1 hr, shaking at RT. Blocking solution was removed and samples serially diluted in block were added and incubated for 1 hr shaking at RT. Plates were washed 3x as before and a secondary antibody was added (goat anti-hu IgG Fc-HRP—Southern Biotech L2047-05, 1:5000;
goat anti-mouse IgG Fc-HRP—Thermo Scientific, diluted 1:4,000; or mouse anti-penta-HIS-HRP, Qiagen, 1:1000), followed by shaking for 1 hr at RT. Plates were washed as before and signal was developed using TMB, the reaction stopped with H2SO4 and the absorbance read at 450 nm on an Envision plate reader (Perkin Elmer). An alternative detection method was also periodically employed in place of TMB/H2SO4. […] Time-resolved fluorescence was then measured at 320 and 615 nm using an EnVision® plate reader (EnVision® Multilabel Plate Reader, Perkin Elmer) following the manufacturer's methods.
The molecule B1 had an EC50 of 1.45 nM.
The same measure, in the same setting: the figure for B2 is 0.355 nM.

A further experiment has as its target T3, Human GUCY2C ECD Cleaved (human, UniProt P25092 24-430).
T3 construct: also called human GUCY2c extracellular domain protein (ECD)
Nature of the experiment: SPR, human IgG1 against human GUCY2c ECD.
B3 registered a Kd of 6.25 nM, a koff of 0.00149 s⁻¹ and a kon of 239000 M⁻¹ s⁻¹.
Taken in the same sequence, the figures for B4 were 13.9 nM, 0.00271 s⁻¹ and 195000 M⁻¹ s⁻¹.
As to B5, the affinity, expressed as Kd, was 9.44 nM; the koff was determined as 0.00132 s⁻¹; the kon turned out to be 140000 M⁻¹ s⁻¹.
Turning to B6, the Kd came out at 10.3 nM, the koff is 0.00124 s⁻¹ and the kon turned out to be 121000 M⁻¹ s⁻¹.
Taken in the same sequence, the figures for B7 were 12.4 nM, 0.00179 s⁻¹ and 144000 M⁻¹ s⁻¹.
Taken in the same sequence, the figures for B8 were 5.94 nM, 0.00147 s⁻¹ and 248000 M⁻¹ s⁻¹.
On to B9, for which the Kd came out at 9.75 nM, the koff stood at 0.00193 s⁻¹ and the kon was found to be 198000 M⁻¹ s⁻¹.
Taken in the same sequence, the figures for B10 were 10.3 nM, 0.00214 s⁻¹ and 210000 M⁻¹ s⁻¹.
For B11, in that order: 6.71 nM, 0.00108 s⁻¹ and 161000 M⁻¹ s⁻¹.

Another experiment has as its target T4, Human GUCY2C ECD-muIgG2a (human).
T4 construct: also called human GUCY2c ECD-mouse IgG2a Fc fusion protein; huGUCY2c-mIgG2a
The experiment in a line: sandwich ELISA: CD3 epsilon-delta coated, GUCY2c ECD-mIgG2a Fc in solution.
B1 had a concentration giving a half-maximal response (EC50) of 9.68 nM.
On the same count and under the same terms, under B2 stands 5.04 nM.

As usually defined, the EC50 is the concentration at which the effect is half-maximal. Broadly, the Kd is a measure of binding affinity in units of concentration. Low readings indicate higher affinity, high ones lower affinity. The koff is a measure of how fast the partners let go of each other. Low values mean slow dissociation, high ones fast dissociation. The kon is a measure of how fast the partners come together. Lower therefore signals slow association.
